Assay results: patent US9757468B2, “Intranasal administration of guanidinylated aminoglycosides” (The Regents of the University of California, priority 2013, dated 2017)
Like-named read-outs stand apart in the source and are kept apart here.

Key:
[1] = tested on: α-iduronidase-deficient mice (Idua−/−; Homozygote); assay: Brain enzyme activity one hour after intranasal administration of forms of iduronidase; conditions: 2 mg/kg, FIG. 1
brain = conditions: in vivo; cited from earlier work
[2] = tested on: α-iduronidase-deficient mice (Idua−/−; Homozygote); conditions: mouse, in vivo
Experimental: One hour following administration the mice were sacrificed and their brains were removed and dissected to isolate tissue from the olfactory bulb, the cerebral cortex, and “other parts of the brain.” The total amount of tissue protein recovered from these various portions was ˜1 mg, ˜25 mg, and ˜50 mg, respectively. The various tissues were then assayed for IDUA activity, which was expressed relative to the wet weight of each part of brain.

[3] = tested on: mouse model of mucopolysaccharidosis (MPS) type I; assay: Reduction of brain glycosaminoglycans by intranasal treatment (carbazole assay); assay type: in vivo; conditions: intranasal 1 mg/kg every other day for two weeks, MPS I mice, *p<0.05, FIG. 3
Experimental: A mouse model of mucopolysaccharidosis (MPS) type I, which is null for the lysosomal enzyme, α-L-iduronidase (IDUA), was used to measure the amount of glycosaminoglycans in the brain following intranasal administration of 1 mg/kg IDUA or GNeo-AP-IDUA every other day for two weeks. Quantification of glycoaminoglycan was performed using the carbazole assay. […] Data are represented as mean±SD (n=5 or 6). One-way analysis of variance (ANOVA) with Tukey's post-hoc analysis for comparison was applied for data analysis (*p<0.05).

[4] = tested on: α-iduronidase-deficient mice (Idua−/−; Homozygote); conditions: mouse, in vivo, 2 mg/kg
[5] = tested on: sulfamidase deficient mice (Sgsh−/−); assay: Brain enzyme activity one hour after intranasal administration of sulfamidase forms; conditions: 2 mg/kg, FIG. 4
[6] = tested on: sulfamidase deficient mice (Sgsh−/−); conditions: mouse, in vivo, 2 mg/kg

B1: IDUA: recombinant enzyme iduronidase (Aldurazyme), not conjugated to guanidinoneomycin (protein, UniProt P35475 28-653, looked up)
Alpha-L-iduronidase: APHLVHVDAARALWPLRRFWRSTGFCPPLPHSQADQYVLSWDQQLNLAYVGAVPHRGIKQVRTHWLLELVTTRGSTGRGLSYNFTHLDGYLDLLRENQLLPGFELMGSASGHFTDFEDKQQVFEWKDLVSSLARRYIGRYGLAHVSKWNFETWNEPDHHDFDNVSMTMQGFLNYYDACSEGLRAASPALRLGGPGDSFHTPPRSPLSWGLLRHCHDGTNFFTGEAGVRLDYISLHRKGARSSISILEQEKVVAQQIRQLFPKFADTPIYNDEADPLVGWSLPQPWRADVTYAAMVVKVIAQHQNLLLANTTSAFPYALLSNDNAFLSYHPHPFAQRTLTARFQVNNTRPPHVQLLRKPVLTAMGLLALLDEEQLWAEVSQAGTVLDSNHTVGVLASAHRPQGPADAWRAAVLIYASDDTRAHPNRSVAVTLRLRGVPPGPGLVYVTRYLDNGLCSPDGEWRRLGRPVFPTAEQFRRMRAAEDPVAAAPRPLPAGGRLTLRPALRLPSLLLVHVCARPEKPPGQVTRLRALPLTQGQLVLVWSDEHVGSKCLWTYEIQFSQDGKAYTPVSRKPSTFNLFVFSPDTGAVSGSYRVRALDYWARPGPFSDPVPYLEVPVPRGPPSPGNP
[1]
  enzyme activity in brain extracts (uptake into the brain): not taken up efficiently
brain
  levels of enzyme in the brain after intranasal delivery: extremely low

B2: AP-IDUA: iduronidase modified with alkaline phosphatase only, not conjugated to GNeo (protein, UniProt P35475 28-653, looked up)
Alpha-L-iduronidase: APHLVHVDAARALWPLRRFWRSTGFCPPLPHSQADQYVLSWDQQLNLAYVGAVPHRGIKQVRTHWLLELVTTRGSTGRGLSYNFTHLDGYLDLLRENQLLPGFELMGSASGHFTDFEDKQQVFEWKDLVSSLARRYIGRYGLAHVSKWNFETWNEPDHHDFDNVSMTMQGFLNYYDACSEGLRAASPALRLGGPGDSFHTPPRSPLSWGLLRHCHDGTNFFTGEAGVRLDYISLHRKGARSSISILEQEKVVAQQIRQLFPKFADTPIYNDEADPLVGWSLPQPWRADVTYAAMVVKVIAQHQNLLLANTTSAFPYALLSNDNAFLSYHPHPFAQRTLTARFQVNNTRPPHVQLLRKPVLTAMGLLALLDEEQLWAEVSQAGTVLDSNHTVGVLASAHRPQGPADAWRAAVLIYASDDTRAHPNRSVAVTLRLRGVPPGPGLVYVTRYLDNGLCSPDGEWRRLGRPVFPTAEQFRRMRAAEDPVAAAPRPLPAGGRLTLRPALRLPSLLLVHVCARPEKPPGQVTRLRALPLTQGQLVLVWSDEHVGSKCLWTYEIQFSQDGKAYTPVSRKPSTFNLFVFSPDTGAVSGSYRVRALDYWARPGPFSDPVPYLEVPVPRGPPSPGNP
modifications: alkaline phosphatase modified
[1]
  enzyme activity in brain extracts (uptake into the brain): does not appear to facilitate efficient transport into the brain

B3: GNeo-AP-IDUA: iduronidase (Aldurazyme) treated with alkaline phosphatase to remove mannose-6-phosphate groups, then conjugated to guanidinoneomycin via GNeo-NHS (conjugate, UniProt P35475 28-653, looked up)
Alpha-L-iduronidase: APHLVHVDAARALWPLRRFWRSTGFCPPLPHSQADQYVLSWDQQLNLAYVGAVPHRGIKQVRTHWLLELVTTRGSTGRGLSYNFTHLDGYLDLLRENQLLPGFELMGSASGHFTDFEDKQQVFEWKDLVSSLARRYIGRYGLAHVSKWNFETWNEPDHHDFDNVSMTMQGFLNYYDACSEGLRAASPALRLGGPGDSFHTPPRSPLSWGLLRHCHDGTNFFTGEAGVRLDYISLHRKGARSSISILEQEKVVAQQIRQLFPKFADTPIYNDEADPLVGWSLPQPWRADVTYAAMVVKVIAQHQNLLLANTTSAFPYALLSNDNAFLSYHPHPFAQRTLTARFQVNNTRPPHVQLLRKPVLTAMGLLALLDEEQLWAEVSQAGTVLDSNHTVGVLASAHRPQGPADAWRAAVLIYASDDTRAHPNRSVAVTLRLRGVPPGPGLVYVTRYLDNGLCSPDGEWRRLGRPVFPTAEQFRRMRAAEDPVAAAPRPLPAGGRLTLRPALRLPSLLLVHVCARPEKPPGQVTRLRALPLTQGQLVLVWSDEHVGSKCLWTYEIQFSQDGKAYTPVSRKPSTFNLFVFSPDTGAVSGSYRVRALDYWARPGPFSDPVPYLEVPVPRGPPSPGNP
modifications: guanidinoneomycin conjugate; alkaline phosphatase modified
[2]
  dose at which uptake into the olfactory bulb (OB) and cerebral cortex (CC) saturated: ~1 mg/kg
  enzyme concentration in the OB versus the CC, based on enzyme specific activity (nmols/hr/mg of tissue protein): much greater than in the CC
  share of the administered dose in Other parts of the Brain: ~64%
  share of the administered dose in the CC: ~23%
  share of the administered dose in the OB: ~13%
[3]
  total GAG level in the mouse brain compared with untreated mouse brains: significantly decreased
[4]
  enzyme activity in brain extracts (uptake into the brain): significantly more enzymatic activity

B4: GNeo-SGSH: Sulfamidase (SGSH) conjugated to guanidinoneomycin (conjugate, UniProt P51688 21-502, looked up)
N-sulphoglucosamine …: RPRNALLLLADDGGFESGAYNNSAIATPHLDALARRSLLFRNAFTSVSSCSPSRASLLTGLPQHQNGMYGLHQDVHHFNSFDKVRSLPLLLSQAGVRTGIIGKKHVGPETVYPFDFAYTEENGSVLQVGRNITRIKLLVRKFLQTQDDRPFFLYVAFHDPHRCGHSQPQYGTFCEKFGNGESGMGRIPDWTPQAYDPLDVLVPYFVPNTPAARADLAAQYTTVGRMDQGVGLVLQELRDAGVLNDTLVIFTSDNGIPFPSGRTNLYWPGTAEPLLVSSPEHPKRWGQVSEAYVSLLDLTPTILDWFSIPYPSYAIFGSKTIHLTGRSLLPALEAEPLWATVFGSQSHHEVTMSYPMRSVQHRHFRLVHNLNFKMPFPIDQDFYVSPTFQDLLNRTTAGQPTGWYKDLRHYYYRARWELYDRSRDPHETQNLATDPRFAQLLEMLRDQLAKWQWETHDPWVCAPDGVLEEKLSPQCQPLHNEL
modifications: guanidinoneomycin conjugate
[5]; one hour after administration
  enzyme activity in brain extracts (uptake into the brain): rapid uptake into the brain
[5]; one hour
  level of activity in the olfactory bulb of brain versus wildtype animals: exceeded that found in wildtype animals

B5: SGSH: Sulfamidase with mannose-6-phosphate terminated glycans, not conjugated to guanidinoneomycin (protein, UniProt P51688 21-502, looked up)
N-sulphoglucosamine …: RPRNALLLLADDGGFESGAYNNSAIATPHLDALARRSLLFRNAFTSVSSCSPSRASLLTGLPQHQNGMYGLHQDVHHFNSFDKVRSLPLLLSQAGVRTGIIGKKHVGPETVYPFDFAYTEENGSVLQVGRNITRIKLLVRKFLQTQDDRPFFLYVAFHDPHRCGHSQPQYGTFCEKFGNGESGMGRIPDWTPQAYDPLDVLVPYFVPNTPAARADLAAQYTTVGRMDQGVGLVLQELRDAGVLNDTLVIFTSDNGIPFPSGRTNLYWPGTAEPLLVSSPEHPKRWGQVSEAYVSLLDLTPTILDWFSIPYPSYAIFGSKTIHLTGRSLLPALEAEPLWATVFGSQSHHEVTMSYPMRSVQHRHFRLVHNLNFKMPFPIDQDFYVSPTFQDLLNRTTAGQPTGWYKDLRHYYYRARWELYDRSRDPHETQNLATDPRFAQLLEMLRDQLAKWQWETHDPWVCAPDGVLEEKLSPQCQPLHNEL
[6]
  enzyme activity in brain extracts (uptake into the brain): not taken up efficiently
